These results are taken from publication PMC11417369, “DNA sequence and chromatin differentiate sequence-specific transcription factor binding in the human malaria parasite Plasmodium falciparum”.

For this series, the target named is T1, AP2-LT D1 (Plasmodium falciparum, UniProt Q8IAM1 2520-2577).
T1 sequence: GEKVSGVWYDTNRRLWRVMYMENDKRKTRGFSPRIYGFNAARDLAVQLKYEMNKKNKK
Nature of the series: gcPBM; about 25 ug protein; PBS, 1% milk, 0.2 mg/ml BSA, salmon testes DNA, 0.03% Triton X-100. To be noted: tags: N-terminal GST (pGEX-4T-1), kept; label: surface-attached array probe.

B1: CACACA_site2004 (dsDNA)
DNA 1: AAAATGTGCCCACGCGTACACACAAAAAAAGAAAAA
DNA 2: TTTTTCTTTTTTTGTGTGTACGCGTGGGCACATTTT
B1: the binding signal is 9.36 ln median PBM intensity, better of two orientations.

B2: CACACA_site5591 (dsDNA)
DNA 1: ATAATATAAACATACACACACACATATATATATATA
DNA 2: TATATATATATATGTGTGTGTGTATGTTTATATTAT
Regarding B2, the binding signal was 10.1 ln median PBM intensity, better of two orientations.

B3: CACACA_site7896 (dsDNA)
DNA 1: TATACATACATACATACACACACACCGATATATATA
DNA 2: TATATATATCGGTGTGTGTGTATGTATGTATGTATA
For the molecule B3, the binding signal is 9.94 ln median PBM intensity, better of two orientations.

B4: CACACA_site1139 (dsDNA)
DNA 1: TCTGTTAATATTTATACACACATATATATATATATA
DNA 2: TATATATATATATATGTGTGTATAAATATTAACAGA
With B4, the binding signal is 9.45 ln median PBM intensity, better of two orientations.

B5: CACACA_site3128 (dsDNA)
DNA 1: CCACTAATAAATATTACACACATATATATATATATT
DNA 2: AATATATATATATATGTGTGTAATATTTATTAGTGG
Consider B5, for which the binding signal is 9.47 ln median PBM intensity, better of two orientations.

B6: CACACA_site5015 (dsDNA)
DNA 1: ACCTCATAATATTTAACACACAAAATTATCTGTATG
DNA 2: CATACAGATAATTTTGTGTGTTAAATATTATGAGGT
Regarding B6, the binding signal was 9.39 ln median PBM intensity, better of two orientations.

B7: CACACA_site4294 (dsDNA)
DNA 1: TTTATTAATGGACACACACACACACCCAAAATAAAA
DNA 2: TTTTATTTTGGGTGTGTGTGTGTGTCCATTAATAAA
Take B7: the binding signal is 10.1 ln median PBM intensity, better of two orientations.

B8: CACACA_site242 (dsDNA)
DNA 1: TTTATTAAGAAACACACACACACACCCAAAATAAAA
DNA 2: TTTTATTTTGGGTGTGTGTGTGTGTTTCTTAATAAA
For B8, the binding signal was 10.1 ln median PBM intensity, better of two orientations.

B9: CACACA_site3391 (dsDNA)
DNA 1: AAAAAAAAAAAAAACACACATACACGCCCACCCATA
DNA 2: TATGGGTGGGCGTGTATGTGTGTTTTTTTTTTTTTT
Take B9: the binding signal was 10.1 ln median PBM intensity, better of two orientations.

B10: CACACA_site1961 (dsDNA)
DNA 1: ATTTTTTAACATATCATACACACAACCACTTTTTAT
DNA 2: ATAAAAAGTGGTTGTGTGTATGATATGTTAAAAAAT
Take B10: the binding signal is 9.38 ln median PBM intensity, better of two orientations.

B11: CACACA_site960 (dsDNA)
DNA 1: TGAATATTTACTTTAGCACACAATTTGTATTTGATT
DNA 2: AATCAAATACAAATTGTGTGCTAAAGTAAATATTCA
For the molecule B11, the binding signal was 9.42 ln median PBM intensity, better of two orientations.

B12: CACACA_site5706 (dsDNA)
DNA 1: CTATTTTGGATGTGTACACATATATATATTTATATT
DNA 2: AATATAAATATATATATGTGTACACATCCAAAATAG
Turning to B12, the binding signal was 9.41 ln median PBM intensity, better of two orientations.

B13: CACACA_site2459 (dsDNA)
DNA 1: ACCTAAGAACTATTTACACACATATACAAAATATAT
DNA 2: ATATATTTTGTATATGTGTGTAAATAGTTCTTAGGT
Take B13: the binding signal is 9.34 ln median PBM intensity, better of two orientations.

B14: CACACA_site5583 (dsDNA)
DNA 1: ATTAAATACATTAACACACACACAAATAAATACATA
DNA 2: TATGTATTTATTTGTGTGTGTGTTAATGTATTTAAT
With B14, the binding signal was 9.88 ln median PBM intensity, better of two orientations.

B15: CACACA_site4591 (dsDNA)
DNA 1: CACATACAGATATATACACACAAATATATATACTCA
DNA 2: TGAGTATATATATTTGTGTGTATATATCTGTATGTG
In the case of B15, the binding signal was 9.49 ln median PBM intensity, better of two orientations.

B16: CACACA_site1083 (dsDNA)
DNA 1: CTACACAAGCATTAAACACACAAAAGGGATACTTTG
DNA 2: CAAAGTATCCCTTTTGTGTGTTTAATGCTTGTGTAG
As for B16, the binding signal is 9.43 ln median PBM intensity, better of two orientations.

B17: CACACA_site8242 (dsDNA)
DNA 1: AATTTACACGTACGTGTACACACAAAAATATGTTTT
DNA 2: AAAACATATTTTTGTGTGTACACGTACGTGTAAATT
For B17, the binding signal is 9.37 ln median PBM intensity, better of two orientations.

B18: CACACA_site5592 (dsDNA)
DNA 1: AATATAAACAAACACACACACATATATATATATATT
DNA 2: AATATATATATATATGTGTGTGTGTTTGTTTATATT
Turning to B18, the binding signal was 9.96 ln median PBM intensity, better of two orientations.

B19: CACACA_site651 (dsDNA)
DNA 1: ATACATATAGGATGCACACATAATTCAAATACAATA
DNA 2: TATTGTATTTGAATTATGTGTGCATCCTATATGTAT
Regarding B19, the binding signal is 9.54 ln median PBM intensity, better of two orientations.

B20: CACACA_site8278 (dsDNA)
DNA 1: GTAACATACACATATACACACACACCGATATACATA
DNA 2: TATGTATATCGGTGTGTGTGTATATGTGTATGTTAC
On to B20, for which the binding signal was 10 ln median PBM intensity, better of two orientations.

B21: CACACA_site126 (dsDNA)
DNA 1: ACGATATTTTTGGTGACACACATATATATATATATA
DNA 2: TATATATATATATATGTGTGTCACCAAAAATATCGT
Turning to B21, the binding signal was 9.9 ln median PBM intensity, better of two orientations.

B22: CACACA_site656 (dsDNA)
DNA 1: ACAATATCTAGATACACACACATATCTCTCAATCTA
DNA 2: TAGATTGAGAGATATGTGTGTGTATCTAGATATTGT
For B22, the binding signal is 9.5 ln median PBM intensity, better of two orientations.

B23: CACACA_site262 (dsDNA)
DNA 1: ATTATGTATACATAAACACACATATATATAAAAAAA
DNA 2: TTTTTTTATATATATGTGTGTTTATGTATACATAAT
In the case of B23, the binding signal was 9.35 ln median PBM intensity, better of two orientations.

B24: CACACA_site7437 (dsDNA)
DNA 1: AGATAAAAAAAGTACACACACACATATATTTATATA
DNA 2: TATATAAATATATGTGTGTGTGTACTTTTTTTATCT
Take B24: the binding signal is 9.98 ln median PBM intensity, better of two orientations.

B25: CACACA_site6577 (dsDNA)
DNA 1: AGCAACCCCCTAGCTACACACATATAGATATAAATA
DNA 2: TATTTATATCTATATGTGTGTAGCTAGGGGGTTGCT
Turning to B25, the binding signal was 9.99 ln median PBM intensity, better of two orientations.

B26: CACACA_site9096 (dsDNA)
DNA 1: TCATAAATTAAACACACACACACATCTGGATACCCC
DNA 2: GGGGTATCCAGATGTGTGTGTGTGTTTAATTTATGA
For the molecule B26, the binding signal is 10.1 ln median PBM intensity, better of two orientations.

B27: CACACA_site6367 (dsDNA)
DNA 1: AATATCTTAGTGGATACACACATATAAATGTGTATT
DNA 2: AATACACATTTATATGTGTGTATCCACTAAGATATT
In the case of B27, the binding signal is 9.32 ln median PBM intensity, better of two orientations.

B28: CACACA_site5230 (dsDNA)
DNA 1: ATAATATCATCAAACGCACACATACATAAATATATT
DNA 2: AATATATTTATGTATGTGTGCGTTTGATGATATTAT
As for B28, the binding signal is 9.51 ln median PBM intensity, better of two orientations.

B29: CACACA_site2423 (dsDNA)
DNA 1: GTGCATAAATCATACACACACACATATATATATATA
DNA 2: TATATATATATATGTGTGTGTGTATGATTTATGCAC
For B29, the binding signal is 10 ln median PBM intensity, better of two orientations.

B30: CACACA_site3715 (dsDNA)
DNA 1: ATATATATATAATAAACACACAAATAGATATAACAT
DNA 2: ATGTTATATCTATTTGTGTGTTTATTATATATATAT
As for B30, the binding signal is 9.52 ln median PBM intensity, better of two orientations.

B31: CACACA_site8822 (dsDNA)
DNA 1: ATTATGCACCAACACACACACACACTCCTAAAAAAT
DNA 2: ATTTTTTAGGAGTGTGTGTGTGTGTTGGTGCATAAT
Turning to B31, the binding signal was 9.97 ln median PBM intensity, better of two orientations.

B32: CACACA_site4122 (dsDNA)
DNA 1: AAAACAAACACATTTACACACATAAATAAATCAATT
DNA 2: AATTGATTTATTTATGTGTGTAAATGTGTTTGTTTT
Take B32: the binding signal is 9.58 ln median PBM intensity, better of two orientations.

B33: CACACA_site4472 (dsDNA)
DNA 1: TTTGAATCCTTATATACACACATTATATAATATTAT
DNA 2: ATAATATTATATAATGTGTGTATATAAGGATTCAAA
B33: the binding signal is 9.33 ln median PBM intensity, better of two orientations.

B34: CACACA_site1192 (dsDNA)
DNA 1: AAAAATACCTTATATATACACACTATGTTTTTCTTT
DNA 2: AAAGAAAAACATAGTGTGTATATATAAGGTATTTTT
For the molecule B34, the binding signal was 9.31 ln median PBM intensity, better of two orientations.

B35: CACACA_site699 (dsDNA)
DNA 1: ATTTATATATAATATACACACATATAATCCACATAT
DNA 2: ATATGTGGATTATATGTGTGTATATTATATATAAAT
Consider B35, for which the binding signal is 9.4 ln median PBM intensity, better of two orientations.

B36: CACACA_site3695 (dsDNA)
DNA 1: AAGCTTCATTAATATACACACATATATGCGTATATT
DNA 2: AATATACGCATATATGTGTGTATATTAATGAAGCTT
Regarding B36, the binding signal is 9.46 ln median PBM intensity, better of two orientations.

B37: CACACA_site2254 (dsDNA)
DNA 1: TTTTTTTTTATTATCATGCACACATTTTTTTTTTTT
DNA 2: AAAAAAAAAAAATGTGTGCATGATAATAAAAAAAAA
Take B37: the binding signal was 9.48 ln median PBM intensity, better of two orientations.

B38: CACACA_site8178 (dsDNA)
DNA 1: TACATATAAACAATAACACACACCTAGGTACATGGA
DNA 2: TCCATGTACCTAGGTGTGTGTTATTGTTTATATGTA
Consider B38, for which the binding signal is 9.55 ln median PBM intensity, better of two orientations.

B39: CACACA_site8541 (dsDNA)
DNA 1: AAGTACATACATAAAACACACACATATATATATATA
DNA 2: TATATATATATATGTGTGTGTTTTATGTATGTACTT
In the case of B39, the binding signal is 9.93 ln median PBM intensity, better of two orientations.

B40: CACACA_site452 (dsDNA)
DNA 1: CACAAAGACACAAACACACACACACCCACATACATA
DNA 2: TATGTATGTGGGTGTGTGTGTGTTTGTGTCTTTGTG
As to B40, the binding signal was 10 ln median PBM intensity, better of two orientations.

B41: CACACA_site2284 (dsDNA)
DNA 1: AAAAAAAAAAAAGGCACACAAACATATGTAGACATA
DNA 2: TATGTCTACATATGTTTGTGTGCCTTTTTTTTTTTT
Regarding B41, the binding signal is 9.56 ln median PBM intensity, better of two orientations.
